Reference: patent US20230122862A1

Biological target: CD23 coated on ELISA plates (UniProt P06734)
Experiment: ELISA, CD23 coated, pre-formed mAb:IgE complex added, anti-human IgG Fc-HRP detection

Substance: pre-formed UB-221:IgE complex (from UniProt P01854 1-428)
- EC50: 0.0416 µg/mL
